This note sets out measurements from patent US20250002565A1 (published 2025).

The term EC50 denotes the concentration needed to bring the measured effect to its halfway point.

Numbering of substitutions follows the chain as printed. No end group written: not given here.

The target in assay [1] is T1, 15-mer peptide LGIWGCSGKLICTTT (SEQ ID NO:1) (HIV, not fully specified; cysteine pairing not given here).
T1 construct: also called U1731DB060-1; U173DB060-1
T1 peptide: LGIWGCSGKLICTTT
Nature of the assay: indirect ELISA; 15-mer peptide coated 1 ug/ml in DTT; negative control well of this row (not explained). As to the method:
(§1) In a first study, an ELISA was prepared in which the linear (reduced) form of the 15-mer peptide […] (SEQ ID NO:1) was coated onto a solid support and contacted with various concentrations of peptides #1, #2, #3, #4, #5, #6, #7, #8, #9Q, #10Q, and #11Q. A mouse, anti-human IgG Fc-HRP at 0.2 μg/ml was used as a secondary antibody.

Assay [2] deals with T1, 15-mer peptide LGIWGCSGKLICTTT (SEQ ID …). The experiment in a line: indirect ELISA; 15-mer peptide coated 1 ug/ml in DTT; antibody at 12 ng/ml. As to the method: as §1
Background: ELISA stands for enzyme-linked immunosorbent assay.

For assay [3] the target is unchanged. Nature of the assay: indirect ELISA; 15-mer peptide coated 1 ug/ml in DTT; antibody at 111 ng/ml. The method, then:
as §1

Assay [4] has the same target. The experiment in a line: indirect ELISA; 15-mer peptide coated 1 ug/ml in DTT; antibody at 333 ng/ml. The method, then:
as §1

For assay [5] the target is unchanged. Nature of the assay: indirect ELISA; 15-mer peptide coated 1 ug/ml in DTT; antibody at 37 ng/ml. As to the method: as §1
For assay [6] the target is unchanged. Nature of the assay: indirect ELISA; 15-mer peptide coated 1 ug/ml in DTT; antibody at 1000 ng/ml. As to the method:
as §1

The target of assay [7] is T2, recombinant HIV gp41 (HIV).
T2 construct: also called U7267DC080-1; U1916DG190-1
Nature of the assay: indirect ELISA; gp41 coated 2 µg/ml in PBS. As to the method:
(§2) Variants #9V, #10V, and #11V were prepared with substitutions in the heavy chain. These variants comprised amino acids sequences nearly identical to #9Q, #10Q, and #11Q, respectively, with the only distinction being a substitution of glutamine (Q) for valine (V) at the 5 position of the heavy chain. Exemplary peptides #10Q and #10V were tested in indirect ELISA assays to determine the EC50 values for binding to the epitope having the amino acid sequence of SEQ ID NO:1 and HIV gp41. The results of these studies are shown in Tables 6 and 7 below, as well as FIGS. 2 and 3. Target proteins U7267DC080-1 and U173DB060-1 correspond to recombinant gp41 and the 15-mer peptide […] (SEQ ID NO:1), respectively.

The target in assay [8] is T3, gp41 on the membrane of HIV-infected CD4+ cells (HIV).
T3 construct: whole, on cells; also called CD4 cell-surface gp41
The experiment in a line: FACS on HIV-infected CD4+ cells, absence of sCD4. As to the method: (§3) For the FACS binding studies, the CD4+ cells that were infected with HIV expressed HIV viral envelope proteins on the cell membrane surfaces, e.g., gp160=gp41 and gp 120. Binding of proteins #7, #10Q, and #10V was tested in both presence and absence of soluble CD4 (sCD4).

For assay [9], the target named is T2, recombinant HIV gp41. Nature of the assay: GenScript binding assay, EC50 vs rgp41 (summary table; per first reading the same value as in Tables 6-8).
The target in assay [10] is gp41 of HIV isolate SF-162 (clade B clinical isolate) (HIV isolate SF-162, clade B). The experiment in a line: cell-based or functional assay.
The target in assay [11] is T3, gp41 on the membrane of HIV-infected …. Nature of the assay: FACS on HIV-infected CD4+ cells, presence of sCD4. As to the method:
as §3

Assay [12] deals with T2, recombinant HIV gp41. Nature of the assay: indirect ELISA; gp41 coated 2 µg/ml in DTT (by the table's columns; paragraph 121 calls it the value against SEQ ID NO:1). The method, then: as §2

B1: HIV-binding peptide #1 (antibody, human IgG1, kappa, V domains shown)
VH: QVQLQESGGGVVQPGRSLRLSCAASGFTFSSYAIHWVRQAPGKGLEWVAVISYDGSNRYYADSVKGRFTISRDNSKNTLYLQMNSLRPEDTAVYYCARDRFSAVASTPTYHNYFYMDVWGKGTTVTVSS
VL: DIQMTQSPSSLSASVGDRVTITCQASQDVNNYLAWYQQKPGQAPRLLIYDASNLETGVPSRFSGSGSGTDFTLTISSLQPEDLATYYCQQYDNTPYTFGQGTKLEIKR
notes: Recombinant, fully human immunoglobulin; also called U1205DB020-1
As to B1, the “ELISA OD (Neg. Cont.)” value in [1] was determined as 0.096 OD. Further, the “ELISA OD” value in assay [2] was 0.08 OD; in [3], 0.076 OD; in assay [4] it was 0.096 OD; in assay [5] it was 0.098 OD; in [6] it was 0.079 OD.

B2: HIV-binding peptide #9Q (antibody, human IgG1, V domains shown)
VH: B1 VH
As to B2, the “ELISA OD (Neg. Cont.)” value in assay [1] amounted to 0.105 OD. The “ELISA OD” value amounted to 0.111 OD in [2]; 0.171 OD in assay [3]; 0.322 OD in [4]; 0.122 OD in assay [5]; 0.745 OD in assay [6].

B3: HIV-binding peptide #10Q (antibody, V domains shown)
VH: B1 VH
notes: also called antibody#10-5Q; U1205DB020-10
Regarding B3, the EC50 with recombinant HIV gp41 [7] is 1.78 µg/mL; with recombinant HIV gp41 [9], 1.78 µg/mL; with recombinant HIV gp41 [12], 5.54 µg/mL. Besides, the “ELISA OD (Neg. Cont.)” value in assay [1] turned out to be 0.084 OD. For the same molecule, the “ELISA OD” value in assay [2] was 0.14 OD; in assay [3], 0.377 OD; in assay [4], 0.863 OD; in assay [5], 0.209 OD; in assay [6], 1.71 OD. Further, the figures for the “Fluorescent (FACS) counts” value in assay [8] and in assay [11] were 120000 counts and 110000 counts, respectively. In addition, in [10], the “IC value vs SF 162 (µg/ml) in PBMC based in vitro assays” value (“IC value vs SF 162 (µg/ml)” below) turned out to be 0.05 µg/mL.

B4: HIV-binding peptide #3 (antibody, human IgG1, kappa, V domains shown)
VH: B1 VH
VL: B1 VL with T94L
notes: Recombinant, fully human immunoglobulin; also called U1205DB020-3
Turning to B4, the “ELISA OD (Neg. Cont.)” value in [1] stood at 0.083 OD. Further, the “ELISA OD” value came to 0.087 OD in [2]; 0.072 OD in assay [3]; 0.077 OD in assay [4]; 0.074 OD in [5]; 0.072 OD in [6].

B5: HIV-binding peptide #2 (antibody, human IgG1, kappa, V domains shown)
VH: B1 VH
VL: B1 VL with V29I
notes: Recombinant, fully human immunoglobulin; also called U1205DB020-2
Turning to B5, in assay [1], the “ELISA OD (Neg. Cont.)” value was found to be 0.075 OD. The “ELISA OD” value in [2] stood at 0.065 OD; in [3], 0.188 OD; in assay [4] it was 0.076 OD; in assay [5], 0.074 OD; in assay [6], 0.068 OD.

B6: HIV-binding peptide #4 (antibody, human IgG1, kappa, V domains shown)
VH: B1 VH
VL: B1 VL with V29I, T94L
notes: Recombinant, fully human immunoglobulin; also called U1205DB020-4
Take B6: the “ELISA OD (Neg. Cont.)” value in assay [1] amounted to 0.091 OD. Further, the “ELISA OD” value in assay [2] was 0.073 OD; in assay [3] it was 0.073 OD; in [4] it was 0.079 OD; in assay [5], 0.077 OD; in assay [6], 0.07 OD.

B7: HIV-binding peptide #8 (antibody, human IgG1, kappa, V domains shown)
VH: B1 VH
VL: B1 VL with V29I, N30S, T94L
notes: Recombinant, fully human immunoglobulin; also called U1205DB020-8
With B7, the “ELISA OD (Neg. Cont.)” value in [1] stood at 0.088 OD. Besides, the “ELISA OD” value in assay [2] was found to be 0.094 OD; in assay [3], 0.1 OD; in assay [4], 0.073 OD; in assay [5], 0.089 OD; in assay [6] it was 0.076 OD.

B8: HIV-binding peptide #7 (antibody, human IgG1, kappa, V domains shown)
VH: B1 VH
VL: B1 VL with N30S, T94L
notes: also called U1205DB020-7
On to B8, for which the “ELISA OD (Neg. Cont.)” value in [1] is 0.088 OD. The “ELISA OD” value worked out at 0.096 OD in assay [2]; 0.084 OD in [3]; 0.092 OD in [4]; 0.098 OD in assay [5]; 0.09 OD in assay [6]. Besides, the figures for the “Fluorescent (FACS) counts” value in assay [8] and in assay [11] were 25900 counts and 25000 counts, respectively. Also, in the assay with recombinant HIV gp41 [9], the half-maximal effective concentration (EC50) came to 107 µg/mL. Moreover, the “IC value vs SF 162 (µg/ml)” value in assay [10] stood at 0.5 µg/mL.

B9: HIV-binding peptide #11Q (antibody, V domains shown)
VH: B1 VH
notes: Heavy chain only with variant CH1/CH2 (hinge cysteines replaced by serines)
B9: the “ELISA OD (Neg. Cont.)” value in assay [1] worked out at 0.104 OD. The “ELISA OD” value came to 0.092 OD in assay [2]; 0.127 OD in assay [3]; 0.241 OD in [4]; 0.119 OD in assay [5]; 0.441 OD in [6].

B10: HIV-binding peptide #6 (antibody, human IgG1, kappa, V domains shown)
VH: B1 VH
VL: B1 VL with V29I, N30S
notes: Recombinant, fully human immunoglobulin; also called U1205DB020-6
Consider B10, for which the “ELISA OD (Neg. Cont.)” value in assay [1] was found to be 0.087 OD. Further, the “ELISA OD” value in assay [2] was 0.077 OD; in assay [3], 0.08 OD; in [4], 0.078 OD; in [5], 0.072 OD; in assay [6], 0.079 OD.

B11: HIV-binding peptide #10V (antibody, V domains shown)
VH: B1 VH with Q5V
notes: differs from #10Q by Q to V at position 5 of the heavy chain; also called antibody#10-5V; U6323DD200-2
For B11, the concentration giving a half-maximal response (EC50) came to 1.39 µg/mL with recombinant HIV gp41 [7], 1.39 µg/mL in the assay with recombinant HIV gp41 [9] and 4.59 µg/mL with recombinant HIV gp41 [12]. For the same molecule, the entries for the “Fluorescent (FACS) counts” value in assay [8] and in assay [11] were 56600 counts and 29900 counts, respectively. Further, the “IC value vs SF 162 (µg/ml)” value in assay [10] amounted to 0.5 µg/mL.

B12: HIV-binding peptide #5 (antibody, human IgG1, kappa, V domains shown)
VH: B1 VH
VL: B1 VL with N30S
notes: Recombinant, fully human immunoglobulin; also called U1205DB020-5
With B12, the “ELISA OD (Neg. Cont.)” value in [1] came to 0.078 OD. The “ELISA OD” value in assay [2] was determined as 0.082 OD; in assay [3], 0.071 OD; in assay [4], 0.086 OD; in [5], 0.081 OD; in assay [6], 0.081 OD.
